PMC3646915 (Journal of molecular biology, 2013)
Where two headings read alike, the source gives them in different places. Values belong to the binder of their own block, whether it stands above or below them.

B1: AtHsp18.5 tryptic fragment 11–153 (domain or fragment, Arabidopsis thaliana, UniProt O64564 11-153, looked up)
chain: RLSPGDRIWEPFELMNTFLDFPSPALFLSHHFPSLSREIFPQTSSSTVNTQLNWTETPTAHVFKAYLPGVDQDEVIAFVDEEGYLQICTGDNKFMSRFKLPNNALTDQVTAWMEDEFLVVFVEKDASSSPPQLPEIEENRNVR
B2: AtHsp18.5 tryptic fragment 11–150 (domain or fragment, Arabidopsis thaliana, UniProt O64564 11-150, looked up)
chain: RLSPGDRIWEPFELMNTFLDFPSPALFLSHHFPSLSREIFPQTSSSTVNTQLNWTETPTAHVFKAYLPGVDQDEVIAFVDEEGYLQICTGDNKFMSRFKLPNNALTDQVTAWMEDEFLVVFVEKDASSSPPQLPEIEENR
B3: AtHsp18.5 tryptic fragment 12–153 (domain or fragment, Arabidopsis thaliana, UniProt O64564 12-153, looked up)
chain: LSPGDRIWEPFELMNTFLDFPSPALFLSHHFPSLSREIFPQTSSSTVNTQLNWTETPTAHVFKAYLPGVDQDEVIAFVDEEGYLQICTGDNKFMSRFKLPNNALTDQVTAWMEDEFLVVFVEKDASSSPPQLPEIEENRNVR

Assays:
native MS [1] = molecular target: the molecule itself; assay: native MS
[2] = molecular target: T1, porcine mitochondrial malate dehydrogenase (porcine, UniProt P00346 25-338); assay: SEC
T1 sequence (looked up): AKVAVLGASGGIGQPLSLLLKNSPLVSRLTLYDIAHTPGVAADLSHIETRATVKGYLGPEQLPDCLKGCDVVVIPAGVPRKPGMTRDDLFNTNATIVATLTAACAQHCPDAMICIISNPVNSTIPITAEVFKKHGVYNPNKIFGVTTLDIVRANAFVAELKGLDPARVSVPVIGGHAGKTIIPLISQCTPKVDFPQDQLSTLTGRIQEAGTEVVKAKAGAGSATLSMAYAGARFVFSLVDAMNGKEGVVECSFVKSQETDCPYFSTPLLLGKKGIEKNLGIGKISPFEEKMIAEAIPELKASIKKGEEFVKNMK

firefly luciferase = firefly luciferase (firefly, UniProt P08659 1-550 = luciferase); assay: SEC
[3] = molecular target: B2; assay: native MS
[4] = molecular target: B3; assay: native MS
[5] = molecular target: B1; assay: native MS
native MS [6] = molecular target: the molecule itself; assay: native MS; remark: listed apart in the source
native gel or EMSA = molecular target: the molecule itself; assay: native gel or EMSA
[7] = molecular target: the molecule itself; assay: native gel or EMSA + cross-linking + native MS + AUC

Chain of firefly luciferase (P08659 whole entry): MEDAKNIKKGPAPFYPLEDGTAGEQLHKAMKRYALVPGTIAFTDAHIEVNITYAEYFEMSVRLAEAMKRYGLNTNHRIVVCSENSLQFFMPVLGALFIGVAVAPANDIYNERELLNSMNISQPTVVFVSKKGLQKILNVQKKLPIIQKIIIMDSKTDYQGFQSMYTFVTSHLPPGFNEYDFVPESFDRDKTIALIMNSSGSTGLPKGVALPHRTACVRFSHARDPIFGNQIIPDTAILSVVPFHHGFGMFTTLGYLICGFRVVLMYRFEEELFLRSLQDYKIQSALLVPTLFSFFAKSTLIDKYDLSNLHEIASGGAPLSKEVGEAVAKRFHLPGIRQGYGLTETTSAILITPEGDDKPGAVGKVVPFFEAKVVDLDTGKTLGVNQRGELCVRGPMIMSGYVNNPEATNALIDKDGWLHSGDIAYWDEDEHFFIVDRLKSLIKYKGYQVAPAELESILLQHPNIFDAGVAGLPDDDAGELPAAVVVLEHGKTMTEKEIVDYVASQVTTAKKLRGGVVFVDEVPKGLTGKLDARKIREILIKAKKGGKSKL

Binder: B1
binding result (native MS [1]): binds

Binder: B2
binding result (native MS [1]): binds

Binder: B3
binding result (native MS [1]): binds

binding result [2]: binds
binding result (firefly luciferase): binds
B4: PsHsp18.1, cytosolic class I sHSP from Pisum sativum (natural protein, UniProt P19243 1-158, looked up)
chain: MSLIPSFFSGRRSNVFDPFSLDVWDPLKDFPFSNSSPSASFPRENPAFVSTRVDWKETPEAHVFKADLPGLKKEEVKVEVEDDRVLQISGERSVEKEDKNDEWHRVERSSGKFLRRFRLPENAKMDKVKASMENGVLTVTVPKEEIKKAEVKSIEISG

binding result [3]: binds
binding result [4]: binds
binding result [5]: binds
B5: AtHsp18.5 tryptic fragment 48–153 (domain or fragment, Arabidopsis thaliana, UniProt O64564 48-153, looked up)
chain: EIFPQTSSSTVNTQLNWTETPTAHVFKAYLPGVDQDEVIAFVDEEGYLQICTGDNKFMSRFKLPNNALTDQVTAWMEDEFLVVFVEKDASSSPPQLPEIEENRNVR

B6: AtHsp18.5 truncation mutant 25–153 (domain or fragment, Arabidopsis thaliana, UniProt O64564 25-153, looked up)
chain: MNTFLDFPSPALFLSHHFPSLSREIFPQTSSSTVNTQLNWTETPTAHVFKAYLPGVDQDEVIAFVDEEGYLQICTGDNKFMSRFKLPNNALTDQVTAWMEDEFLVVFVEKDASSSPPQLPEIEENRNVR
binding result (native MS [6]): binds

B7: AtHsp18.5 with N-terminal Strep II tag (natural protein, Arabidopsis thaliana, UniProt O64564 1-162, looked up)
chain: MSMIPISNRRRLSPGDRIWEPFELMNTFLDFPSPALFLSHHFPSLSREIFPQTSSSTVNTQLNWTETPTAHVFKAYLPGVDQDEVIAFVDEEGYLQICTGDNKFMSRFKLPNNALTDQVTAWMEDEFLVVFVEKDASSSPPQLPEIEENRNVRVVEITGDDD
stoichiometry N (native gel or EMSA): 2

B8: AtHsp18.5 with Cys98 substituted by Ala (natural protein, Arabidopsis thaliana, UniProt O64564 1-162, looked up)
chain: MSMIPISNRRRLSPGDRIWEPFELMNTFLDFPSPALFLSHHFPSLSREIFPQTSSSTVNTQLNWTETPTAHVFKAYLPGVDQDEVIAFVDEEGYLQIATGDNKFMSRFKLPNNALTDQVTAWMEDEFLVVFVEKDASSSPPQLPEIEENRNVRVVEITGDDD
stoichiometry N [7]: 2

B9: AtHsp18.5 with C-terminal Strep II tag (natural protein, Arabidopsis thaliana, UniProt O64564 1-162, looked up)
chain: MSMIPISNRRRLSPGDRIWEPFELMNTFLDFPSPALFLSHHFPSLSREIFPQTSSSTVNTQLNWTETPTAHVFKAYLPGVDQDEVIAFVDEEGYLQICTGDNKFMSRFKLPNNALTDQVTAWMEDEFLVVFVEKDASSSPPQLPEIEENRNVRVVEITGDDD
stoichiometry N (native gel or EMSA): 2
